Test results published in paper PMC12416549 (2024).
Positions count from the first letter of the chain named. Numbers in names are those of the source. Each block holds one binder with its values, some of them ahead of it.

Target: T1, TNFR1 (Homo sapiens, UniProt P19438)
T1 chain: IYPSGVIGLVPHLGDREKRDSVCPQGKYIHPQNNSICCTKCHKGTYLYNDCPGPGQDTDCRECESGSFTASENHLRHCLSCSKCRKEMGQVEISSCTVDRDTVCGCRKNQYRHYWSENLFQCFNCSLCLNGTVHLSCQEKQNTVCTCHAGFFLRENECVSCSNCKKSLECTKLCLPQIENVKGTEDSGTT
Test: yeast display SC50

- apparent Kd (screen): 1.54 nM
B2: Q48T (designed binder)
chain: MTLQELLREEALRRAEAEAFRYALELLAEKFPEQKEYLLDLAEEIESTIRSLSGVDVEDVRKFLDKEWAWVKELLAEHPAELAEVEAARAARLAELRAEVEAKVAA

- apparent Kd (screen): 0.405 nM
B4: L52W (designed binder)
chain: B2 chain with T48Q, L52W

- apparent Kd (screen): 0.718 nM
B9: A102M (designed binder)
chain: B2 chain with T48Q, A102M

- apparent Kd (screen): 2.73 nM
B10: D56L (designed binder)
chain: B2 chain with T48Q, D56L

- apparent Kd (screen): 0.718 nM
B11: A80K (designed binder)
chain: B2 chain with T48Q, A80K

- apparent Kd (screen): 0.79 nM
B12: D65W (designed binder)
chain: B2 chain with T48Q, D65W

- apparent Kd (screen): 0.718 nM
B14: A105V (designed binder)
chain: B2 chain with T48Q, A105V

- apparent Kd (screen): 0.79 nM
B15: W68I (designed binder)
chain: B2 chain with T48Q, W68I

- apparent Kd (screen): 0.49 nM
B16: V100K (designed binder)
chain: B2 chain with T48Q, V100K

- apparent Kd (screen): 6.43 nM
B17: L74G (designed binder)
chain: B2 chain with T48Q, L74G

- apparent Kd (screen): 0.593 nM
B19: R92M (designed binder)
chain: B2 chain with T48Q, R92M

- apparent Kd (screen): 0.49 nM
B22: R97V (designed binder)
chain: B2 chain with T48Q, R97V

- apparent Kd (screen): 1.16 nM
B23: E77C (designed binder)
chain: B2 chain with T48Q, E77C

- apparent Kd (screen): 0.869 nM
B25: L96I (designed binder)
chain: B2 chain with T48Q, L96I

- apparent Kd (screen): 0.718 nM
B27: E101N (designed binder)
chain: B2 chain with T48Q, E101N

- apparent Kd (screen): 0.539 nM
B28: A102W (designed binder)
chain: B2 chain with T48Q, A102W

- apparent Kd (screen): 0.593 nM
B29: R61M (designed binder)
chain: B2 chain with T48Q, R61M

- apparent Kd (screen): 0.593 nM
B31: H78G (designed binder)
chain: B2 chain with T48Q, H78G

- apparent Kd (screen): 0.593 nM
B37: F63E (designed binder)
chain: B2 chain with T48Q, F63E

- apparent Kd (screen): 10.4 nM
B38: E67W (designed binder)
chain: B2 chain with T48Q, E67W

- apparent Kd (screen): 0.593 nM
B40: A98F (designed binder)
chain: B2 chain with T48Q, A98F

- apparent Kd (screen): 2.48 nM
B41: R89D (designed binder)
chain: B2 chain with T48Q, R89D

- apparent Kd (screen): 0.869 nM
B43: S51A (designed binder)
chain: B2 chain with T48Q, S51A

Second part, the binder before the results:

B1: F20T (designed binder)
chain: B2 chain with F20T, T48Q
- apparent Kd (screen): 1.16 nM

B3: R8D (designed binder)
chain: B2 chain with R8D, T48Q
- apparent Kd (screen): 0.593 nM

B5: E44G (designed binder)
chain: B2 chain with E44G, T48Q
- apparent Kd (screen): 20.2 nM

B6: A28P (designed binder)
chain: B2 chain with A28P, T48Q
- apparent Kd (screen): 2.05 nM

B7: Q34D (designed binder)
chain: B2 chain with Q34D, T48Q
- apparent Kd (screen): 5.31 nM

B8: Y22P (designed binder)
chain: B2 chain with Y22P, T48Q
- apparent Kd (screen): 4.39 nM

B13: L3I (designed binder)
chain: B2 chain with L3I, T48Q
- apparent Kd (screen): 0.539 nM

B18: E43A (designed binder)
chain: B2 chain with E43A, T48Q
- apparent Kd (screen): 0.79 nM

B20: D40F (designed binder)
chain: B2 chain with D40F, T48Q
- apparent Kd (screen): 18.3 nM

B21: Y37N (designed binder)
chain: B2 chain with Y37N, T48Q
- apparent Kd (screen): 0.869 nM

B24: L41K (designed binder)
chain: B2 chain with L41K, T48Q
- apparent Kd (screen): 11.4 nM

B26: K30Q (designed binder)
chain: B2 chain with K30Q, T48Q
- apparent Kd (screen): 0.718 nM

B30: L41Q (designed binder)
chain: B2 chain with L41Q, T48Q
- apparent Kd (screen): 2.48 nM

B32: I45F (designed binder)
chain: B2 chain with I45F, T48Q
- apparent Kd (screen): 3.63 nM

B33: E9P (designed binder)
chain: B2 chain with E9P, T48Q
- apparent Kd (screen): 20.2 nM

B34: Y37G (designed binder)
chain: B2 chain with Y37G, T48Q
- apparent Kd (screen): 5.31 nM

B35: L39F (designed binder)
chain: B2 chain with L39F, T48Q
- apparent Kd (screen): 0.189 nM

B36: E5H (designed binder)
chain: B2 chain with E5H, T48Q
- apparent Kd (screen): 0.49 nM

B39: P32L (designed binder)
chain: B2 chain with P32L, T48Q
- apparent Kd (screen): 0.593 nM

B42: E10G (designed binder)
chain: B2 chain with E10G, T48Q
- apparent Kd (screen): 1.4 nM
